Test results: patent US20170219602A1

B1: recombinant Equ c 15k (protein, from a related filing, horse)
chain 1: ATCPAVATDIASFFLLPDSLFKLQLIKYQAPPEAKDATMQVKQCINEISAGDRYIITETLGKIVLQCGA
chain 2: GSGCQLLEDVVEKTITAELSPAEYVEAVQEFIPDEATEKAAIQLKQCYLKQSNETLNDFRTMMNSMYNSAYCALF
B2: recombinant single chain Equ c s ab (protein)
chain: MDICPAVKEDVNIFLTGTPDDYVKKVSQYQRNPVILANAEKLKNCIDKKLTAEDKENALSVLEKIYSSDFCGGGGSGGGGSGGGGSCPSFYAVLGVLSLGSKTLLDTSLNLVNATEPEKVAMGKIQDCYNEAGVITKISDLIIMGTITTSPECISHALSTLTTDVQEGISKLNPLGRLEHHHHHH

Columns and labels:
[1] = target: IgE antibodies of serum C; assay: ImmunoCAP inhibition, inhibitor 100 µg/ml, cat dander extract solid phase
[2] = target: IgE antibodies of serum D; assay: as above
[3] = target: IgE antibodies of serum A; assay: as above
[4] = target: IgE antibodies of serum E; assay: as above
[5] = target: IgE antibodies of serum B; assay: as above
[6] = target: IgE antibodies of serum C; assay: ImmunoCAP inhibition, inhibitor 100 µg/mL, horse dander extract solid phase
[7] = target: IgE antibodies of serum D; assay: as above
[8] = target: IgE antibodies of serum A; assay: as above
[9] = target: IgE antibodies of serum E; assay: as above
[10] = target: IgE antibodies of serum B; assay: as above
[11] = target: IgE antibodies of serum C; assay: ImmunoCAP inhibition, inhibitor 100 µg/mL, competitor rEqu c s on solid phase
[12] = target: IgE antibodies of serum D; assay: as above
[13] = target: IgE antibodies of serum A; assay: as above
[14] = target: IgE antibodies of serum E; assay: as above
[15] = target: IgE antibodies of serum B; assay: as above
[16] = target: IgE antibodies of serum C; assay: ImmunoCAP inhibition, inhibitor 100 µg/ml, horse dander extract solid phase
[17] = target: IgE antibodies of serum D; assay: as above
[18] = target: IgE antibodies of serum A; assay: as above
[19] = target: IgE antibodies of serum E; assay: as above
[20] = target: IgE antibodies of serum B; assay: as above
[21] = target: IgE antibodies of serum C; assay: ImmunoCAP inhibition, inhibitor 100 µg/mL, competitor rFel d 1 on solid phase
[22] = target: IgE antibodies of serum D; assay: as above
[23] = target: IgE antibodies of serum A; assay: as above
[24] = target: IgE antibodies of serum E; assay: as above
[25] = target: IgE antibodies of serum B; assay: as above

Binder | Inhibition (%) [6] [%] | Inhibition (%) [7] [%] | Inhibition (%) [8] [%] | Inhibition (%) [9] [%] | Inhibition (%) [10] [%] | Inhibition (%) [11] [%] | Inhibition (%) [12] [%] | Inhibition (%) [13] [%] | Inhibition (%) [14] [%] | Inhibition (%) [15] [%] | Inhibition (%) [21] [%] | Inhibition (%) [22] [%] | Inhibition (%) [23] [%] | Inhibition (%) [24] [%] | Inhibition (%) [25] [%] | also measured
B1 | 0 | -6 | -10 | -10 | -2 | 7 | 8 | 12 | 4 | 5 | -6 | -2 | -5 | -3 | -4 | Inhibition (%) [1]: -2%; Inhibition (%) [2]: 0%; Inhibition (%) [3]: -2%; Inhibition (%) [4]: 4%; Inhibition (%) [5]: 6%; Inhibition (%) [16]: 5%; Inhibition (%) [17]: 4%; Inhibition (%) [18]: -5%; Inhibition (%) [19]: 2%; Inhibition (%) [20]: -2%
B2 | 96 | 96 | 96 | 98 | 93 | 62 | 59 | 60 | 76 | 62 | -2 | 5 | -7 | 7 | -3 | 
